According to patent US20100303724A1 (UNIVERSITE PARIS DIDEROT PARIS 7, published 2010):
Bridge positions count the residues as written; N and C are the ends. * marks the point of attachment. Biotin = O=C1N[C@H]2[C@H](CS[C@H]2CCCCC(=O)*)N1

Assays:
[1] = target: T1, human fibronectin (Sigma) (human, UniProt P02751-8 32-2296, limits assumed); assay: Solid phase assay: biotin-collagelin on coated fibronectin, detected with peroxidase-coupled extravidin [panel B]
T1 construct: Bought protein
Experimental: (§1) FIG. 3: Peptide Interaction with collagen and with different macromolecules: A Binding of collagelin to immobilized collagen in microtitration plates. biotin-collagelin or control peptide were incubated with immobilized fibrillar type I collagen and bound peptide was detected using peroxydase-coupled extravidine. In competition experiments collagelin was mixed with recombinant soluble GPVI (50 and 20 μg.mL−1), 9O12 IgGs (50 and 20 μg.mL−1) or 3J24.2 IgGs (50 μg.mL−1) prior to addition to collagen-coated wells. B: Binding of biotin-collagelin or control peptide (50 μg.mL−1) to immobilized fibrinogen, fibronectin, vitronectin and laminin. Coating of microtitration wells with the different proteins was performed as with collagen. Bound peptides were detected using peroxidase coupled extravidine.
(§2) Proteins [type I equine fibrillar collagen (Horm), bovine fibrinogen (Sigma), human fibronectin (Sigma), rat vitronectin (Sigma), murine laminin (Gibco), and bovine serum albumin (BSA Sigma)] were coated (1 μg/well) on microtitration plates (Immulon 2 Dynex vWR) for 24 hours at 4° C. After saturation of free sites with BSA, biotinylated FLIGPVI peptide (50 μg/ml) was added to the wells for 2 hours. The peptide bound to the wells was then detected using extravidin-HRP and orthophenyldiamine as substrate.

[2] = target: T2, bovine fibrinogen (Sigma) (bovine, UniProt P02672 20-615; P02676 1-468; P12799 25-444, limits assumed); assay: Solid phase assay: biotin-collagelin on coated fibrinogen, detected with peroxidase-coupled extravidin [panel B]
T2 construct: Bought protein
T2 sequence (looked up) 1: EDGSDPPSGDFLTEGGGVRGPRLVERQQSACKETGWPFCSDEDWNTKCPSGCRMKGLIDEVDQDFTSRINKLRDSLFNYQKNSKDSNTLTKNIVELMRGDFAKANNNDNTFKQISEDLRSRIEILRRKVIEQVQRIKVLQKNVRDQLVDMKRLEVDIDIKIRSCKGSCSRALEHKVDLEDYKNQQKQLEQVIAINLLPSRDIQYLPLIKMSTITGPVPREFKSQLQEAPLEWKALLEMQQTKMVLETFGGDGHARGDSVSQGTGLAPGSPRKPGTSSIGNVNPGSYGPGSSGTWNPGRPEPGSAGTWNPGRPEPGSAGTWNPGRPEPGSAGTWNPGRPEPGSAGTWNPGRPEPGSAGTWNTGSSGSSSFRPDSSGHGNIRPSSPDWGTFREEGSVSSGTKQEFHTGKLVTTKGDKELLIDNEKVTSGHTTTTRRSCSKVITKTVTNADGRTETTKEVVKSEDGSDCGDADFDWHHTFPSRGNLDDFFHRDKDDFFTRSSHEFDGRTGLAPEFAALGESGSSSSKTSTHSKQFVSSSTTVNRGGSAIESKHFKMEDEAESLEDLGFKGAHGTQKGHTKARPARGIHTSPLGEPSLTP
T2 sequence (looked up) 2: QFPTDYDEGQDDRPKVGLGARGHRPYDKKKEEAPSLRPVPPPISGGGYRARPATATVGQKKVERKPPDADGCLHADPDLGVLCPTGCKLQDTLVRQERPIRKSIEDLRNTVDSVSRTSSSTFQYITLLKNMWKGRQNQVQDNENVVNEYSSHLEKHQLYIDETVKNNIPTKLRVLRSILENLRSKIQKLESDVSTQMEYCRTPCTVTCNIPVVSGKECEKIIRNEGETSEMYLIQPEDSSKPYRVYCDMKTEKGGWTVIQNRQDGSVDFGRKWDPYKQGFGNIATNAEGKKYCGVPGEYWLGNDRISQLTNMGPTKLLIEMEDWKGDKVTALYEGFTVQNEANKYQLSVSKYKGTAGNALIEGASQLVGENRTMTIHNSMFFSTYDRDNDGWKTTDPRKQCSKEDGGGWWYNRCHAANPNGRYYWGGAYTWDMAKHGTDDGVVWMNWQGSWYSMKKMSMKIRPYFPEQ
T2 sequence (looked up) 3: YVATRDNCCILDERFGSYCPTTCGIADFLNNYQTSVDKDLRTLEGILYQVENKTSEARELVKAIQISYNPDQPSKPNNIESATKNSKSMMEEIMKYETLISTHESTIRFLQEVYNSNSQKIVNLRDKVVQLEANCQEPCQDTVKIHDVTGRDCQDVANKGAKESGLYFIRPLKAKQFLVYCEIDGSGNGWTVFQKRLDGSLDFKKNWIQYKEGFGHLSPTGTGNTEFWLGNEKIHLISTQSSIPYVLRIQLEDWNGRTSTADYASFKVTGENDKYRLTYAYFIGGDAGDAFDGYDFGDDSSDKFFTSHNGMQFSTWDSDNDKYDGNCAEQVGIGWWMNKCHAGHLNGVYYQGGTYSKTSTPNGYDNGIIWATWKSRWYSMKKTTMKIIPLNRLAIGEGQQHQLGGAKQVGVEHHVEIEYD
Experimental: as §1, §2

[3] = target: T3, type I equine fibrillar collagen (Collagen Horm, Nycomed) (equine); assay: SPR; biotin-collagelin injected on collagen amine-coupled to a CM5 sensorchip
T3 construct: Bought fibrillar preparation; also called type I collagen; fibrillar type I collagen
Experimental: FIG. 2: Interaction of the collagelin with collagen: A Collagen was injected on biotin-collagelin immobilized on a streptavidin coated sensorchip. ˜10 RU collagen were bound onto the collagelin coated surface (dark). The fit is also indicated (grey). Non-specific background signal from a control flow cell coated with an irrelevant peptide was deduced. B Binding of collagelin to immobilized collagen. Increasing quantities of biotin-collagelin (250, 500 μg.mL−1) were injected on a collagen immobilized on a CM5 sensorchip. Sensorgrams and interaction fits obtained with the peptide are shown in black and grey respectively. Non-specific background measured using an irrelevant peptide was deduced.
In other experiments, fibrillar collagen was manually immobilized on a CM5-sensorchip according to the manufacturer's instructions (Biacore, Uppsala, Sweden). The biotinylated peptide (125; 250, 500 and 1000 μg/mL) was injected on immobilized collagen at 25° C. with a flow rate of 20 μL.min−1. In competition experiments, the peptide was pre-incubated with recombinant soluble human GPVI-Fc or the 9O12.2 IgGs before injection onto the surface. The surface plasmon resonance intensity was monitored and data analyzed using BioEval2.0 (Biacore).
Using the streptavidin-coated sensorship onto which biotin-collagelin was immobilized we observed binding of type I collagen to the surface (FIG. 2A). […]

[4] = target: T4, soluble recombinant GPVI-Fc fusion protein (human, UniProt Q9HCN6 21-269, limits assumed); assay: SPR; biotin-collagelin on a streptavidin sensorchip
T4 construct: also called recombinant soluble GPVI; recombinant soluble human GPVI-Fc; not shown: Fc part
T4 sequence (looked up): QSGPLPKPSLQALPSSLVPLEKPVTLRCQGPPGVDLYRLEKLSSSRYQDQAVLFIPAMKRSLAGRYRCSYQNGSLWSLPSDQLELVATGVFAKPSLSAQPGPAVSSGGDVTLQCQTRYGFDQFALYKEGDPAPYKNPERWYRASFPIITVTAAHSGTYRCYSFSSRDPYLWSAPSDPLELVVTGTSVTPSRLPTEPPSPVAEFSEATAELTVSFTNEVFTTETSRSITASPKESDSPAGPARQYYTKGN

T1 sequence (P02751 other isoform, or with tags, fused parts or gaps limits assumed): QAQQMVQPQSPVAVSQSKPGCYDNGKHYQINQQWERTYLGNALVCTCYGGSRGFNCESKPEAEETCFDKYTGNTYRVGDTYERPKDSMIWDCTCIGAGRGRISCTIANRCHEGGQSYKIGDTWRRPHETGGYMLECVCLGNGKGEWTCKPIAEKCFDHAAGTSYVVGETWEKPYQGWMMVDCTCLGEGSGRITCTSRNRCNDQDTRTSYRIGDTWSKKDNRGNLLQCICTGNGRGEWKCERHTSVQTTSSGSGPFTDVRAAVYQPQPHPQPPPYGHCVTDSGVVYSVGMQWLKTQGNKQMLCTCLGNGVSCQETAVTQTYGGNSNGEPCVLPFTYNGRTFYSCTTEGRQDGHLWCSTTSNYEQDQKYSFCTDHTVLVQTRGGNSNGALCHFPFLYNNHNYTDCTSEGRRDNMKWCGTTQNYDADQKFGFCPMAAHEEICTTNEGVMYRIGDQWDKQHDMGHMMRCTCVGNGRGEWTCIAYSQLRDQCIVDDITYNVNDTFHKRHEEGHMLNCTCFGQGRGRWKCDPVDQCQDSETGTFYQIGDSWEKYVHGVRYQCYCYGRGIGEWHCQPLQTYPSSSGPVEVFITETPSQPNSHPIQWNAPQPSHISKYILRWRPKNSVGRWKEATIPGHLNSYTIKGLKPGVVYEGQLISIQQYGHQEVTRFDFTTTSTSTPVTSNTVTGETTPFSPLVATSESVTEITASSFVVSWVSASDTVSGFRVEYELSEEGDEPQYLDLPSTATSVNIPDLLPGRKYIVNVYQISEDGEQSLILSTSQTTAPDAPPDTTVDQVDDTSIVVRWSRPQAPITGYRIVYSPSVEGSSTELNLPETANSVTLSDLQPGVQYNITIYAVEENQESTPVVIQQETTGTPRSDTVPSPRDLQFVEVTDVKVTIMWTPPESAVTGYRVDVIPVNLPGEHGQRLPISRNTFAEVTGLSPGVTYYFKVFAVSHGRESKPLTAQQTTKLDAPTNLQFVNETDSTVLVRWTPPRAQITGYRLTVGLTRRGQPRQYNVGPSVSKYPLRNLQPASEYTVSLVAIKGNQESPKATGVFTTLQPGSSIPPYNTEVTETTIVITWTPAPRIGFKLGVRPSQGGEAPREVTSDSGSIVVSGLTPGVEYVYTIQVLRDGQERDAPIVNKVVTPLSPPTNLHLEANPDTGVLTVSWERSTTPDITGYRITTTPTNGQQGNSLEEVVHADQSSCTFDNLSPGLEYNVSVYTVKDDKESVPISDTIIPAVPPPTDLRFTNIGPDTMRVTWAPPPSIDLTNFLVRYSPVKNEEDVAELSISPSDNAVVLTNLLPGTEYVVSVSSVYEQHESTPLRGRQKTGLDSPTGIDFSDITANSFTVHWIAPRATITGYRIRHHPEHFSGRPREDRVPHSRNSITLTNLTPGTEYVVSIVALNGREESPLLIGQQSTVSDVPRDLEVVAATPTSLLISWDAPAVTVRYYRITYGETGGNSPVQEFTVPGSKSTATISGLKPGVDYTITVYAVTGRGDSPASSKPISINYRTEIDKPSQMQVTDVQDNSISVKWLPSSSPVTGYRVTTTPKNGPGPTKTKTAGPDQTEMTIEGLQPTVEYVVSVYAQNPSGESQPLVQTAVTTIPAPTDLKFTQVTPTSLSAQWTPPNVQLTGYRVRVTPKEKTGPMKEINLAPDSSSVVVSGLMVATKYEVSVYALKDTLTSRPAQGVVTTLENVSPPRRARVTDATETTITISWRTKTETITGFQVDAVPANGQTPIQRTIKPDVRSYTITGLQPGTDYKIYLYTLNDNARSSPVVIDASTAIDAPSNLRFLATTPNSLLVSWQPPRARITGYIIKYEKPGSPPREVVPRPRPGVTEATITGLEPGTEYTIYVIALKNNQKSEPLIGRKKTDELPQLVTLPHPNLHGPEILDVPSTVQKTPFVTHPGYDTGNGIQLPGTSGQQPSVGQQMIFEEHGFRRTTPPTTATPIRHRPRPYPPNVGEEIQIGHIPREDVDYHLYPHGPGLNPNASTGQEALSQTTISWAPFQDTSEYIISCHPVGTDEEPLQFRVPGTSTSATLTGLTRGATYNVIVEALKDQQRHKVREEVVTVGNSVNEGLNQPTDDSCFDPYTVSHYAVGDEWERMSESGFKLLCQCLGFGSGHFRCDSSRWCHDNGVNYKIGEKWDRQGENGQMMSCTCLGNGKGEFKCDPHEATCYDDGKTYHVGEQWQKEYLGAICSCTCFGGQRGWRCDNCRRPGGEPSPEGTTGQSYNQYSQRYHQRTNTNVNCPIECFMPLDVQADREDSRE

binding result [1]: no binding (tested: 50 µg/mL (legend))
binding result [2]: no binding (tested: 50 µg/mL (legend))
Kd [3]: 100 nM
binding result [4]: no binding (tested: 25 µg/ml)
B1: biotin-collagelin (peptide)
peptide: Biotin-SGSGCGPRVMHGLHLGDDEGPC-NH2
modifications: disulfide 5-22
SMILES: CSCC[C@@H]1NC(=O)[C@H](C(C)C)NC(=O)[C@H](CCCNC(=N)N)NC(=O)[C@@H]2CCCN2C(=O)CNC(=O)[C@@H](NC(=O)CNC(=O)[C@H](CO)NC(=O)CNC(=O)[C@H](CO)NC(=O)CCCC[C@@H]2SC[C@@H]3NC(=O)N[C@@H]32)CSSC[C@@H](C(N)=O)NC(=O)[C@@H]2CCCN2C(=O)CNC(=O)[C@H](CCC(=O)O)NC(=O)[C@H](CC(=O)O)NC(=O)[C@H](CC(=O)O)NC(=O)CNC(=O)[C@H](CC(C)C)NC(=O)[C@H](Cc2c[nH]cn2)NC(=O)[C@H](CC(C)C)NC(=O)CNC(=O)[C@H](Cc2c[nH]cn2)NC1=O
notes: also called biotinylated collagelin
